Laboratory results reported in patent US20140221613A1.
Values joined by “and” are separate entries in the source; they are usually repeats but may differ in a detail not shown here. Equal values may be shown once. Blank lines part the entries; values can stand above or below the binder they belong to.

Legend:
[1] = target: IgG1 type humanized monoclonal antibody
[2] = target: IgG1 type humanized monoclonal antibody; remark: listed apart in the source
human immunoglobulin IgG [3] = target: human immunoglobulin IgG
human immunoglobulin IgG [4] = target: human immunoglobulin IgG; remark: listed apart in the source
[5] = target: Fc region of human immunoglobulin (human); assay: pH 4.5
[6] = target: Fc region of human immunoglobulin (human); assay: pH 7.4
[7] = target: Fc region of human immunoglobulin (human); assay: SPR, Fc immobilised, neutral region
[8] = target: Fc region of human immunoglobulin (human); assay: SPR, Fc immobilised, weakly acidic region
[9] = target: IgG1 type humanized monoclonal antibody; remark: listed apart in the source
[10] = target: IgG1 type humanized monoclonal antibody; assay: SPR, IgG1 antibody immobilised, pH 7.4

B1: CGB19H-5D (designed binder)
chain: MAYYDPETGTWYSGGRDTYKLILNGKTLKGETTTEAVDAATAEKVFKHYANEHGVHGHWTYDPETKTFTVTERPEVIDASELTPAVDTYKLILNGKTLKGETTTEAVDAATAEKVFKHYANEHGVHGHWTYDPETKTFTVTERPEVIDASELTPAVDTYKLILNGKTLKGETTTEAVDAATAEKVFKHYANEHGVHGHWTYDPETKTFTVTERPEVIDASELTPAVDTYKLILNGKTLKGETTTEAVDAATAEKVFKHYANEHGVHGHWTYDPETKTFTVTERPEVIDASELTPAVDTYKLILNGKTLKGETTTEAVDAATAEKVFKHYANEHGVHGHWTYDPETKTFTVTERPEVIDASELTPAVGGGGSGGGGSGGGGSGGGGCHHHHHH
Binding Rate of Antibody after Running Buffer for 10 min (Binding portion) [1]: 65.2% and 82.7% | Dissociation Rate of Antibody at an acidic pH, pH2 (30s) later [2]: 63.4% and 81.8% | Dissociation Rate of Antibody at an acidic pH, pH5 (30s) later [2]: 5.6% and 2.1%

B2: CGB19H-4D (designed binder)
chain: MAYYDPETGTWYSGGRDTYKLILNGKTLKGETTTEAVDAATAEKVFKHYANEHGVHGHWTYDPETKTFTVTERPEVIDASELTPAVDTYKLILNGKTLKGETTTEAVDAATAEKVFKHYANEHGVHGHWTYDPETKTFTVTERPEVIDASELTPAVDTYKLILNGKTLKGETTTEAVDAATAEKVFKHYANEHGVHGHWTYDPETKTFTVTERPEVIDASELTPAVDTYKLILNGKTLKGETTTEAVDAATAEKVFKHYANEHGVHGHWTYDPETKTFTVTERPEVIDASELTPAVGGGGSGGGGSGGGGSGGGGCHHHHHH
Binding Rate of Antibody after Running Buffer for 10 min (Binding portion) [1]: 59.4% and 77.8% | Dissociation Rate of Antibody at an acidic pH, pH2 (30s) later [2]: 55.6% and 76.3% | Dissociation Rate of Antibody at an acidic pH, pH3 (30s) later [2]: 34.6% and 18.6% | Dissociation Rate of Antibody at an acidic pH, pH5 (30s) later [2]: 6.9% and 3.7%

B3: CGB19H-1D (designed binder)
chain: MAYYDPETGTWYSGGRDTYKLILNGKTLKGETTTEAVDAATAEKVFKHYANEHGVHGHWTYDPETKTFTVTERPEVIDASELTPAVGGGGSGGGGSGGGGSGGGGCHHHHHH
Binding Rate of Antibody after Running Buffer for 10 min (Binding portion) [1]: 52.6% | Dissociation Rate of Antibody at an acidic pH, pH2 (30s) later [2]: 52.7% | Dissociation Rate of Antibody at an acidic pH, pH3 (30s) later [2]: 35.1% | Dissociation Rate of Antibody at an acidic pH, pH5 (30s) later [2]: 7.1%

B4: OXADac-PG14 (designed binder)
chain: MGAGTPVTAPLAGTIWKVLASEGQTVAAGEVLLILEAMKMETEIRAAQAGTVRGIAVKAGDAVAVGDTLMTLAGSGSDLYDDDDKGIITSLYKKAGSAAAPFTDTYKLILNGKTLKGETTTEAVDAATAEKVFKQYANEHGVDGHWTYDPETKTFTVTE
Ratio of the remaining amount of antibody by SPR sensor gram at pH 4.0 (human immunoglobulin IgG [3]): 71% | koff (human immunoglobulin IgG [3]): 0.04 s⁻¹

B5: OXADac-PG13 (designed binder)
chain: MGAGTPVTAPLAGTIWKVLASEGQTVAAGEVLLILEAMKMETEIRAAQAGTVRGIAVKAGDAVAVGDTLMTLAGSGSDLYDDDDKGIITSLYKKAGSAAAPFTDTYKLILNGKTLKGETTTEAVDAATAEKVFKQYANEHGVHGEWTYDPETKTFTVTE
Ratio of the remaining amount of antibody by SPR sensor gram at pH 4.0 (human immunoglobulin IgG [3]): 64% | koff (human immunoglobulin IgG [3]): 0.06 s⁻¹

B7: OXADac-PG07 (designed binder)
chain: MGAGTPVTAPLAGTIWKVLASEGQTVAAGEVLLILEAMKMETEIRAAQAGTVRGIAVKAGDAVAVGDTLMTLAGSGSDLYDDDDKGIITSLYKKAGSAAAPFTDTYKLILNGKTLKGETTTEAVDAATAEKVFKQYANEHGVDGEWTYDPETKTFTVTE
Ratio of the remaining amount of antibody by SPR sensor gram at pH 4.0 (human immunoglobulin IgG [3]): 93% | koff (human immunoglobulin IgG [3]): 0.00011 s⁻¹

B11: OXADac-PG15 (designed binder)
chain: MGAGTPVTAPLAGTIWKVLASEGQTVAAGEVLLILEAMKMETEIRAAQAGTVRGIAVKAGDAVAVGDTLMTLAGSGSDLYDDDDKGIITSLYKKAGSAAAPFTDTYKLILNGKRLKGETTTEAVDAATAEKVFKQYANEHGVDGEWTYDPETKTFTVTE
Ratio of the remaining amount of antibody by SPR sensor gram at pH 4.0 (human immunoglobulin IgG [3]): 90% | koff (human immunoglobulin IgG [3]): 0.00044 s⁻¹

B12: M-PG07 (designed binder)
chain: MDTYKLILNGKTLKGETTTEAVDAATAEKVFKQYANEHGVDGEWTYDPETKTFTVTE
Kd [5]: 230 nM | Kd [6]: 290 nM

B13: M-PG19 (designed binder)
chain: MDTYKLILNGKTLKGETTTEAVDAATAEKVFKHYANEHGVHGHWTYDPETKTFTVTE
fold of avidity in the neutral region against M-PG01 [7]: 11 times | fold of affinity in the acidic region against M-PG01 [8]: 0.6 times | Kd [5]: 1000 nM | Kd [9]: 19 nM | Kd [6]: 43 nM

B14: CGB19H-3D (designed binder)
chain: MAYYDPETGTWYSGGRDTYKLILNGKTLKGETTTEAVDAATAEKVFKHYANEHGVHGHWTYDPETKTFTVTERPEVIDASELTPAVDTYKLILNGKTLKGETTTEAVDAATAEKVFKHYANEHGVHGHWTYDPETKTFTVTERPEVIDASELTPAVDTYKLILNGKTLKGETTTEAVDAATAEKVFKHYANEHGVHGHWTYDPETKTFTVTERPEVIDASELTPAVGGGGCHHHHHH
Binding Rate of Antibody after Running Buffer for 10 min (Binding portion) [1]: 62.5% and 69.6% | Dissociation Rate of Antibody at an acidic pH, pH2 (30s) later [2]: 51.2% and 67.4% | Dissociation Rate of Antibody at an acidic pH, pH3 (30s) later [2]: 36.2% and 29.9% | Dissociation Rate of Antibody at an acidic pH, pH5 (30s) later [2]: 6.4% and 4.6% | fold avidity improvement against M-PG19 [10]: 190 fold | fold difference of the dissociation rate constant against M-PG19 [10]: 370 times | Kd [9]: 0.1 nM

Next, values leading:

Ratio of the remaining amount of antibody by SPR sensor gram at pH 4.0 (human immunoglobulin IgG [3]): 94% | koff (human immunoglobulin IgG [3]): 0.00013 s⁻¹
B6: OXADac-PG16 (designed binder)
chain: MGAGTPVTAPLAGTIWKVLASEGQTVAAGEVLLILEAMKMETEIRAAQAGTVRGIAVKAGDAVAVGDTLMTLAGSGSDLYDDDDKGIITSLYKKAGSAAAPFTDTYKLILNGKTLKGETITEAVDAATAEKVFKQYANEHGVDGEWTYDPETKTFTVTE

increase of the dissociation rate constant against the wild-type (human immunoglobulin IgG [4]): 1000 fold | percent of adsorbed IgG dissociated at pH 4.0 (human immunoglobulin IgG [4]): 60% | Ratio of the remaining amount of antibody by SPR sensor gram at pH 4.0 (human immunoglobulin IgG [3]): 38% | koff (human immunoglobulin IgG [3]): 0.27 s⁻¹
B8: OXADac-PG19 (designed binder)
chain: MGAGTPVTAPLAGTIWKVLASEGQTVAAGEVLLILEAMKMETEIRAAQAGTVRGIAVKAGDAVAVGDTLMTLAGSGSDLYDDDDKGIITSLYKKAGSAAAPFTDTYKLILNGKTLKGETTTEAVDAATAEKVFKHYANEHGVHGHWTYDPETKTFTVTE

Ratio of the remaining amount of antibody by SPR sensor gram at pH 4.0 (human immunoglobulin IgG [3]): 86% | koff (human immunoglobulin IgG [3]): 0.032 s⁻¹
B9: OXADac-PG17 (designed binder)
chain: MGAGTPVTAPLAGTIWKVLASEGQTVAAGEVLLILEAMKMETEIRAAQAGTVRGIAVKAGDAVAVGDTLMTLAGSGSDLYDDDDKGIITSLYKKAGSAAAPFTDTYKLILNGKRLKGETITEAVDAATAEKVFKQYANEHGVDGEWTYDPETKTFTVTE

Ratio of the remaining amount of antibody by SPR sensor gram at pH 4.0 (human immunoglobulin IgG [3]): 58%
B10: OXADac-PG20 (designed binder)
chain: MGAGTPVTAPLAGTIWKVLASEGQTVAAGEVLLILEAMKMETEIRAAQAGTVRGIAVKAGDAVAVGDTLMTLAGSGSDLYDDDDKGIITSLYKKAGSAAAPFTDTYKLILNGKTLKGETTTEAVHAATAEKVFKHYANEHGVHGHWTYDPETKTFTVTE
